Assay results reported in patent US20250002610A1 (Genmab, published 2025).
Residue numbers refer to the chain shown, from its start.

Key:
[1] = target: T1, human DR4 (Death Receptor 4), cell surface expressed on human tumor cell lines (human, UniProt O00220 24-468); experiment: flow cytometry, A549 cells, n = 2
T1 construct: also called TNFRSF10A; TRAIL-R1
T1 sequence: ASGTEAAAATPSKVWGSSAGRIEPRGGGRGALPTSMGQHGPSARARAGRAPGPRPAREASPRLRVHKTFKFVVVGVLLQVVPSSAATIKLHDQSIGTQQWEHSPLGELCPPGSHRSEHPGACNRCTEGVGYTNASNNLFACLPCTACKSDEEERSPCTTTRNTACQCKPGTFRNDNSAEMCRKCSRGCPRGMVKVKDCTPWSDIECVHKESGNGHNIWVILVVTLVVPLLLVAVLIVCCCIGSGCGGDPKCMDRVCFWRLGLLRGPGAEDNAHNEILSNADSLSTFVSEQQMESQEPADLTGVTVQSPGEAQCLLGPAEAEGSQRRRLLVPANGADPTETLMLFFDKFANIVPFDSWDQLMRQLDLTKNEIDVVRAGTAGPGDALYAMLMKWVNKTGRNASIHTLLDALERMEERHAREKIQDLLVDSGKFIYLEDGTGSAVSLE

[2] = target: T1, human DR4 (Death Receptor 4), cell …; experiment: flow cytometry, DLD-1 cells, n = 2
[3] = target: T1, human DR4 (Death Receptor 4), cell …; experiment: flow cytometry, MDA-MB-231 cells, N = 2
[4] = target: T1, human DR4 (Death Receptor 4), cell …; experiment: flow cytometry, HCT-116 cells, average ± SEM
[5] = target: T1, human DR4 (Death Receptor 4), cell …; experiment: flow cytometry, MDA-MB-231 cells, average ± SEM
[6] = target: T2, human FAPα (Fibroblast activation protein alpha), cell surface expressed (human, UniProt Q12884 1-760); experiment: flow cytometry, human lung fibroblasts, n = 2
T2 construct: Endogenous on human lung fibroblasts and CAFs
T2 sequence: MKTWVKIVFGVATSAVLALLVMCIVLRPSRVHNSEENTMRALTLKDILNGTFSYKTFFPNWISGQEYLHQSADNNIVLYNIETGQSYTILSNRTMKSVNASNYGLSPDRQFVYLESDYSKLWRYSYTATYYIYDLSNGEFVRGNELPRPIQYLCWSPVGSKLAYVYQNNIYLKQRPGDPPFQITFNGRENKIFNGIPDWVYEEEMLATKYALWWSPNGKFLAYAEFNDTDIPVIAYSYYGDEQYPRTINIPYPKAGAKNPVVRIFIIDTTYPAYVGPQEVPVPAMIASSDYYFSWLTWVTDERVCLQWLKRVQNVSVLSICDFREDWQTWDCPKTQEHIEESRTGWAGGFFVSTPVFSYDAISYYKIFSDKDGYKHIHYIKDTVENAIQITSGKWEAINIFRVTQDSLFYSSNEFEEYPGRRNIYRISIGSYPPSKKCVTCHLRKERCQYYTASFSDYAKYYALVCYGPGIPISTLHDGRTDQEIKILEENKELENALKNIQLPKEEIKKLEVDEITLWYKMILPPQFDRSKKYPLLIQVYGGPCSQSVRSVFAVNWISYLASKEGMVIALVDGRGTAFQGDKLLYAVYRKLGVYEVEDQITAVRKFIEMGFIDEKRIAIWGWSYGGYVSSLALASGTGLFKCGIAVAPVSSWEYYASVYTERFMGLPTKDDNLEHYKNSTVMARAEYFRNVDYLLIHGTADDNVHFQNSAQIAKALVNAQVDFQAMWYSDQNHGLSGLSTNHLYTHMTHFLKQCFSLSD
Procedure: (§1) Binding of bispecific or monoclonal antibodies carrying the anti-FAPα arm derived from IgG1-FAPα-FERL (BisG1-FAPα-FERL/DR4-FERR, BisG1-FAPα-FERL/b12-FERR, and IgG1-FAPα-FERL) to cell surface expressed human FAPα was analyzed by flow cytometry using human lung fibroblasts and CAFs, which endogenously express FAPα. BisG1-b12-FERL/b12-FERR was used as negative control.
(§2) Human lung fibroblasts and CAFs (50,000 cells/well) were seeded in 96-Well round bottom plates (Greiner Bio-one, Cat #650101). Antibody dilutions were prepared using fluorescence-activated cell sorting (FACS) buffer, consisting of phosphate buffer saline (PBS, Lonza, Cat #BE17-517Q)+1% Bovine Serum Albumin (BSA, Roche, Cat #10735086001)+0.02% Sodium Azide (Bio-World, Cat #41920044-3). Plates were centrifuged, supernatant was removed, cells were resuspended in 50 μL of human Fc Block (BD, Cat #564220, diluted 1:100 in FACS buffer) and 50 μL of viability stain TO-PRO-3 Iodide (Thermo Fisher, Cat #T3605, diluted 1: 25,000 in FACS buffer), and incubated for 15 min at 4° C. Plates were washed three times with FACS buffer. Plates were centrifuged, supernatant was removed, cells were resuspended in 50 μL of antibody dilutions (concentration range 90-0.0005 μg/mL, three-fold dilution steps using FACS buffer) of BisG1-FAPα-FERL/DR4-FERR, BisG1-FAPα-FERL/b12-FERR, BisG1-b12-FERL/b12-FERR (top six concentrations only for CAFs culture) or IgG1-FAPα-FERL (top four concentrations only for CAFs culture) and incubated for 30 min at 4° C. Cells were washed three times with FACS buffer and resuspended in 50 μL of Fluorescein isothiocyanate (FITC)-labeled polyclonal antibody goat anti-mouse IgG1 (Jackson Immuno Research, Cat #109-096-097, diluted 1:100 in FACS buffer). […] Antibody binding to viable cells (TO-PRO-3 negative) was analyzed by flow cytometry on a FACSCelesta™ (BD biosciences) and data were processed using FlowJo_v10.8.1 (FlowJo LLC). Geomean fluorescence intensity, gMFI, was determined and visualized using GraphPad Prism.

[7] = target: T2, human FAPα (Fibroblast activation …); experiment: flow cytometry, human lung fibroblasts, average ± SEM
Procedure: as §1, §2

B1: IgG1-DR4-FERR (antibody, V domains shown)
VH: QVQLQESGPGLVKPSGTLSLTCAVSGGSISSYSWWSWIRQPPGKGLEWIGELYHSGSTNYNPSLKSRVTISVDKSKNQFSLKLRSVTAADTAVYYCVRGVATIDYWGQGTLVTVSS
VL: QSALTQPPSASGSPGQSVTISCTGTSSDVGGYNFVSWYQQDPGKAPKLLIYEVTKRPSGVPDRFSGSKSGNTASLTVSGLQAEDEADYYCSSYAGSNNVMFGGGTKLTVLG
notes: Bivalent monoclonal IgG1 lambda
EC50 [1]: 0.26 µg/mL
EC50 [2]: 0.22 µg/mL
EC50 [3]: 0.26 µg/mL
EC50 [4]: 0.16 µg/mL
EC50 [5]: 0.25 µg/mL

B2: BisG1-FAPα-FERL/b12-FERR (bispecific antibody, human IgG1, kappa)
heavy 1: EVQLLESGGGLVQPGGSPRLSCEASGFTFSSYALSWVRQAPGKGLEWVSAISGSGGGRYYADSVKGRFTISRDNSKNTLFLQMNSLRAEDTAVYYCAKEGYSSSGTYWDHWGQGTLVTVSSASTKGPSVFPLAPSSKSTSGGTAALGCLVKDYFPEPVTVSWNSGALTSGVHTFPAVLQSSGLYSLSSVVTVPSSSLGTQTYICNVNHKPSNTKVDKRVEPKSCDKTHTCPPCPAPEFERGPSVFLFPPKPKDTLMISRTPEVTCVVVDVSHEDPEVKFNWYVDGVEVHNAKTKPREEQYNSTYRVVSVLTVLHQDWLNGKEYKCKVSNKALPAPIEKTISKAKGQPREPQVYTLPPSREEMTKNQVSLTCLVKGFYPSDIAVEWESNGQPENNYKTTPPVLDSDGSFLLYSKLTVDKSRWQQGNVFSCSVMHEALHNHYTQKSLSLSPG
light 1: AIQMTQSPSSVSASVGDRVTITCRASQGVSSWLAWYQQKPGRAPKLLIYVASTLQSGVPSRFSGSGSGTDFTLTINSLQPEDFATYYCQQANSFPPTFGQGTRLEMKRTVAAPSVFIFPPSDEQLKSGTASVVCLLNNFYPREAKVQWKVDNALQSGNSQESVTEQDSKDSTYSLSSTLTLSKADYEKHKVYACEVTHQGLSSPVTKSFNRGEC
heavy 2: QVQLVQSGAEVKKPGASVKVSCQASGYRFSNFVIHWVRQAPGQRFEWMGWINPYNGNKEFSAKFQDRVTFTADTSANTAYMELRSLRSADTAVYYCARVGPYSWDDSPQDNYYMDVWGKGTTVIVSSASTKGPSVFPLAPSSKSTSGGTAALGCLVKDYFPEPVTVSWNSGALTSGVHTFPAVLQSSGLYSLSSVVTVPSSSLGTQTYICNVNHKPSNTKVDKRVEPKSCDKTHTCPPCPAPEFERGPSVFLFPPKPKDTLMISRTPEVTCVVVDVSHEDPEVKFNWYVDGVEVHNAKTKPREEQYNSTYRVVSVLTVLHQDWLNGKEYKCKVSNKALPAPIEKTISKAKGQPREPQVYTLPPSREEMTKNQVSLTCLVKGFYPSDIAVEWESNGQPENNYKTTPPVLDSDGSFFLYSRLTVDKSRWQQGNVFSCSVMHEALHNHYTQKSLSLSPG
light 2: EIVLTQSPGTLSLSPGERATFSCRSSHSIRSRRVAWYQHKPGQAPRLVIHGVSNRASGISDRFSGSGSGTDFTLTITRVEPEDFALYYCQVYGASSYTFGQGTKLERKRTVAAPSVFIFPPSDEQLKSGTASVVCLLNNFYPREAKVQWKVDNALQSGNSQESVTEQDSKDSTYSLSSTLTLSKADYEKHKVYACEVTHQGLSSPVTKSFNRGEC
EC50 [6]: 0.034 µg/mL
EC50 [7]: 0.041 µg/mL

B3: BisG1-b12-FERL/DR4-FERR (bispecific antibody, human IgG1, kappa, lambda)
heavy 1: B2 heavy 2 with F415L, R419K
light 1: B2 light 2
heavy 2: QVQLQESGPGLVKPSGTLSLTCAVSGGSISSYSWWSWIRQPPGKGLEWIGELYHSGSTNYNPSLKSRVTISVDKSKNQFSLKLRSVTAADTAVYYCVRGVATIDYWGQGTLVTVSSASTKGPSVFPLAPSSKSTSGGTAALGCLVKDYFPEPVTVSWNSGALTSGVHTFPAVLQSSGLYSLSSVVTVPSSSLGTQTYICNVNHKPSNTKVDKRVEPKSCDKTHTCPPCPAPEFERGPSVFLFPPKPKDTLMISRTPEVTCVVVDVSHEDPEVKFNWYVDGVEVHNAKTKPREEQYNSTYRVVSVLTVLHQDWLNGKEYKCKVSNKALPAPIEKTISKAKGQPREPQVYTLPPSREEMTKNQVSLTCLVKGFYPSDIAVEWESNGQPENNYKTTPPVLDSDGSFFLYSRLTVDKSRWQQGNVFSCSVMHEALHNHYTQKSLSLSPG
light 2: QSALTQPPSASGSPGQSVTISCTGTSSDVGGYNFVSWYQQDPGKAPKLLIYEVTKRPSGVPDRFSGSKSGNTASLTVSGLQAEDEADYYCSSYAGSNNVMFGGGTKLTVLGQPKAAPSVTLFPPSSEELQANKATLVCLISDFYPGAVTVAWKADSSPVKAGVETTTPSKQSNNKYAASSYLSLTPEQWKSHRSYSCQVTHEGSTVEKTVAPTECS
notes: Fab-arm exchange of IgG1-b12-FERL and IgG1-DR4-FERR; also called bsIgG1-ctrl-FERLxDR4-FERR
EC50 [1]: 0.68 µg/mL
EC50 [2]: 0.68 µg/mL
EC50 [3]: 0.95 µg/mL
Max MFI (at 90 µg/mL) [3]: 7840 MFI
EC50 [4]: 0.57 µg/mL
EC50 [5]: 0.67 µg/mL
Max MFI (at 90 µg/mL) [5]: 7840 MFI

B4: IgG1-FAPα-FERL (antibody)
heavy: B2 heavy 1
light: B2 light 1
notes: Bivalent monoclonal IgG1 kappa
EC50 [6]: 0.006 µg/mL
EC50 [7]: 0.015 µg/mL
